Assay results as given in a protein production outcome set (Wang et al. 2014).

Assay: label from the status in PepcDB records
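Further: failed if final PepcDB status was selected cloned or expressed and not failed if soluble or beyond.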

Sequence | protein production
KSPVREPVDNLSPEERDARTVFCMQLAARIRPRDLEDFFSAVGKVRDVRIISDRNSRRSKGIAYVEFCEIQSVPLAIGLTGQRLLGVPIIVQASQAEKNRL | not failed
KTFAALGSGVIGSGWIARALAHGLDVVAWDPAPGAEAALRARVANAWPALRKQGLAPGAAQERLRFVASIEECVGDADFIQESAPERLDLKLDLHARISAAARPDVLIGSSTSGLLPSEFYAEASHPERCLVGHPFNPVYLLPLVEVVGGERTAAEAVRAAMRVYESLGMRPLHVRKEVPGFIADRLLEALWREALHLVNDGVATTGEIDDAIRFGAGLRWSFMGTFLTYTLAGGNAGMRHFMAQFGPALQLPWTYLPAPELTEALIDRVVEGTAEQQGARSIAELERYRDDCLLAVLGAIRETKARHGFA | failed
KTPIQVLHEYGMKTKNIPVYECERSDVQIHVPTFTFRVTVGDITCTGEGTSKKLAKHRAAEAAINILKANA | not failed
KVKSGWLDKLSPQGKRMFQKRWVKFDGLSISYYNNEKEMYSKGIIPLSAISTVRVQGDNKFEVVTTQRTFVFRVEKEEERNDWISILLNALKSQSLTSQSQA | not failed
KVVFAKEQPAHREVQAEAGASATLSCEVAQAQTEVTWYKDGKKLSSSSKVRVEAVGCTRRLVVQQAGQAEAGEYSCEAGGQQLSFRLQVAGQCFG | not failed
LAAESQADYLGFIFAESKRKVSPEDVKKWLNQVRVEKQVAGVFVNESIETMSRIAKSLKLDVIQLHGDEKPADVAALRKLTGCEIWKALHHQDNTTQEIARFKDNVDGFVIDSSVKGSRGGTGVAFSWDCVPEYQQAAIGKRCFIAGGVNPDSITRLLKWQPEGIDLASGIEKNGQKDQNLMRLLEERMNRYVSISE | failed
LAPPRHLGFSDVSHDAARVFWEGAPRPVRLVRVTYVSSEGGHSGQTEAPGNATSAMLGPLSSSTTYTVRVTCLYPGGGSSTLTGRVTTKKAPSPS | not failed
LDDLSEFVDQVPLLDHHCHFLIDGKVPNRDDRLAQVSTEADKDYPLADTKNRLAYHGFLALAKEFALDANNPLAAMNDPGYATYNHRIFGHFHFKELLIDTGFVPDDPILDLDQTAELVGIPVKAIYRLETHAEDFMLEHDNFAAWWQAFSNDVKQAKAHGFVGFKSIAAYRVGLHLEPVNVIEAAAGFDTWKHSGEKRLTSKPLIDYMLYHVAPFIIAQDMPLQFHVGYGDADTDMYLGNPLLMRDYLKAFTKKGLKVVLLHCYPYHREAGYLASVFPNLYFDISLLDNLGPSGASRVFNEAVELAPYTRILFASDASTYPEMYGLAARQFKQALVAHFNQLPFVDLAQKKAWINAICWQTSAKLYHQERELRV | not failed
LEDFNVTSKVIELDVRKPTPEAAENLNIGMDEDIYYVKRVRYINGQTLCYEESYYTKSIVTYLNNEIVSHSIFHYIREGLGLKIGFSDLFLHVGQLNEEEAEYLGLEAGLPKLYIESIFHLTNGQPFDYSKISYNYEQSQFVVQANSFLL | failed
LESSMNKFHALFDSVMDACVIIDKRGVIKECNAALQTLLGVEDKTALVGTSLTQFHLADTFMGSAVQIAQSVEDVLKQGLLKFEADITDSQGQSIPAEVTLKSIELNTERFVLATYHNLAERRLVDRLIRHERNLLKNVLGMSPIGVWVCVNGTCRYVNAQMTLM | failed
LGTLFFSLEYNFERKAFVVNIKEARGLPAMDEQSMTSDPYIKMTILPEKKHKVKTRVLRKTLDPAFDETFTFYGIPYTQIQELALHFTILSFDRFSRDDIIGEVLIPLSGIELSEGKMLMNREII | not failed
LKKAGGALIAGVLKNGPADDAGIKPGDVLVAVNGKPIFNSSEMLNMVASLAPGKSATLTILRHGGQQDIQVRIGKRPS | failed
LLADGQLQDWHDSTVYEIYHHWRHRYPKGVFENREHLFSAEIPRDTPIALQPEEHVSYGWFDMEEAAEKVFSPSNRRAILELGRFLGKR | failed
LLHGDFELAVPGGPVAAYYAAPAGREQLPIVLVVQEIFGLHEHIKDVCRRLAHDGYLAVSVNLYQRQGDASRYDNIPGLVAELVSKVPDEQVHADLDASLAWAAAHGGDGARVGVTGFCWGGRTTWMYAARNPAVKAGVAWYGRLSSGHGPLIKQVPLDVAGSLHAPVLGLYGGKDESIPLDDVRAMEARLQQGGAPAQASRIVVYPQAGHAFLADYRPSYRAADAQDGWRRMLDWFALYL | not failed
LLLEIGLEEMPARFLNESMVQLGDKLTGWLKEKNITHGEVKLFNTPRRLAVFVKDVAEKQDDIKEEAKGPAKKIALDADGNWTKAAIGFSKGQGANVEDLYIKEVKGIEYVFVQKFQAGQETKSLLPELSGLITSLHFPKNMRWGNEDLRYIRPIKWIVALFGQDVIPFSITNVESGRTTQGHRFLGHEVSIESPSAYEEQLKGQHVIADPSVRKQMIQSQLETMAAENNWSIPVDEDLLDEVNHLVEYPTALYGSFESEFLSIPEEVLVTTMKEHQRYFPVKDKNGDLLPHFITVRNGNSHAIENVARGNEKVLRARLSDASFFYKEDQKLNIDANVKKLENIVFHEELGSLADKVRRVTSIAEKLAVRLQADEDTLKHVKRAAEISKFDLVTHMIYEFPELQGIMGEKYARMLGEDEAVAAAVNEHYMPRSAGGETPSTFTGAVVAMADKLDTIASFFSIGVIPTGSQDPYGLPRQASGIVAILLDRNWGISFEELLTFVQTDKENELLDFFTQRLKYVLNAEQIRHDVIDAVLESSELE | not failed
LNHVAEELCAATNESEVFSIITRSASHIISAQRISYCVPNYKDKCFEIRSVFSENEVMKSATVDMENSALQFVLQSGSPQFFENLAVTNFTDHLILSKNGLCSGWSVPVRVKGEIVGLLNAASNVKINERAQQLGVIKMLSGIMGVTLSRVNLQEQLEHQ | failed
LNKEGEVERLLGINMDMTEVKQLNEALFQEKERLHITLDSIGEAVVCIDMAMKITFMNPVAEKMSGWTQEEALGVPLLTVLHITFGDNGPLMENIYSADTSRSAIEQDVVLHCRSGGSYDVHYSITPLSTLD | failed
LQTALARLGQWGILSRDLYGFFDQATELIRTALGVDYCGLWELLPNRSALVLCAGDGWDKALVGNYTIDATNRSYAGYTIQHNGDRRMEDYEPIVELDLRISTKFRASPLLHNLGIVSGINLMVAGPRTAFGVLGVYSLTARKFTEEEIEFLKVASHILAAAIDRQEYEERLLLLQQAIDASS | failed
LQTLCDILRADPADSRTLTELGREIGASDRTLSRLFRSELGMTFPQWRTQLRLHHALVLLADSTPVTAVAHLCGWSSASAFIDAFRRTFGHTPGARPRD | failed
LQTSRDLLSSVLSSSLDGIIVFSAIRSAGDTIADFECVLVNPQAEKLFESTAEDIVGMRLREDMPRQEEKGLFEAYREVVETGEPAEMEVHYDTDGQDVWFQVMAVKVENGVAVTYRDITDRKEAERQIREQAQLLDKA | failed
LRESEARFRMMADTSPIMLWVADQDKKMTFVNQSWLEFRGATLAEESGNGYLEGIHPDDKGHYLGVYSQAFGDRRRFELEYRYRRVDQQYRWIVNVGVPRYLEDGKFMGYVGSCLDITDRKQAQDILQKKLNQILLMRKISQEIRRSLQPTLIFQTAARQVGNVFAVSRCLIHNYSEATTLQVPVVAEYLGGQFTSLLAGEIAVEQAYDPTIIQGDRAMAVVDLDQDLNSTHTKAFYQRFQVKSFLAVRTSYQGKANGIIALHQCDRQRVWTADEIELLEAIAEQMGIALAQAALLEKERERRRELAQKNLELEKATWAAEAANRAKGEFLAMMSHEIRTPMNGVIGMT | failed
LRESEARLKGIAGNVPGLVFRLERDPAEGDLEFPYISEGSEALVGYAPSEIQHPQMGLRNLVHPEDRADYHRVQDLALASDQDWSWQGRILTRQGEQRWADIKASARHLGNGQVVWDGVVWDITQGKRAELALAKSQEQLRELSAHLESVREEEKARIAREVHDELGQM | not failed
LRESKRFIEQVISHSPQLLYIFEPTTGSNIYLNGQSVDILGYTPEEIKARGVKFFLDVLHPDDLYLLERNLNYWQNAADGEVLTTEWRMKHKNGSWRWLRSRDVVFARDENHFPCKVLGTTQDITDSKLAELE | failed
LTECLSQGEDIRLSKILIFAGTTEGRKLSEHLCKRGIEHTVCVATEYGEIVLHENPFAHVHMGRMDSEGMRSFFAEQKCKLIVDATHPYAAIVTENIKQAVYAFNEAHAVTDNQADSSISENIEYVRLKRDTDISADYDNIRYFEDNEACAKALNNTDGNILLTTGSKELSVYCKTSDVRERLYVRVLPGLESISLCMHNDITGKHILALQGPFSTQLNEALIDQYDIRCLVTKKSGAAGGFIEKIAAAKNKNIPVYIVGQSVQDDGMSFEAVCEYIDSKYNKLHIMLAGIGMGNDACMTKAVSDAIESADIILGASRMIEKYSAKIDKKPYYLAEQIIPYLYEICADTAKISNVLILFSGDTGFYSGSRKLYLAIKNEISEGKLNADVSILPGISSVSYMAAAVGETYNDAYICSIHGVKLSNITSRISHHAKTFMLMSGVRDVNMLGHLLSSDERYGLQKCSVTVGYQLSYPDENISQLSPQECTKLKREGLYICMIKNPNPVAKNVTPQLSDAAFIREKVPMTKEEIRHVSICKLHLKSDSVLYDVGSGTGSIAVEAASLSDDMEVYAIEQKENAVQLITKNKEKHGLENIHVINAKAPDGMENLPVPTHAFIGGSSGNLKEIIEALKAKNPHIRIVINAISMETICEIKEIMSAYNVKNEDIVQLQVSRSKQIGHYHLMQAENPVWICSFEF | failed
MAAAAAAAAAAGAAGGRGSGPGRRRHLVPGAGGEAGEGAPGGAGDYGNGLESEELEPEELLLEPEPEPEPEEEPPRPRAPPGAPGPGPGSGAPGSQEEEEEPGLVEGDPGDGAIEDPELEAIKARVREMEEEAEKLKELQNEVEKQMNMSPPPGNAGPVIMSIEEKMEADARSIYVGNVDYGATAEELEAHFHGCGSVNRVTILCDKFSGHPKGFAYIEFSDKESVRTSLALDESLFRGRQIKVIPKRTNRPGISTTDRGFPRARYRARTTNYNSSRSRFYSGFNSRPRGRVYRGRARATSWYSPY | failed
MAAAGAPDGMEEPSMDTEAEAVATEAPARPLNCVEAEAVVGTAAEDSCDARGNLQPAPAQPPGDPAAQASVSNGEDAGGGAGRELVDLKIIWNKTKHDVKVPLDSTGSELKQKIHSITGLPPAMQKVMYKGLVPEDKTLREIKVTSGAKIMVVGSTINDVLAVNTPKDAAQQDAKAEESKKEPLCRQKQHRKVLDKGKPEDVMPSVKGAQERLPTVPLSGMYNKSGGKVRLTFKLEQDQLWIGTKERTEKLPMGSIKNVVSEPIEGHEDYHMMAFQLGPTEASYYWVYWVPTQYVDAIKDTVLGKWQYF | failed
MAAAPASDVCGGGSKKNCSGRRMSDAAPPVSSPPPRQKGLLGVVERLGNLLPEPVMIFVWLILGLMVLSAIGQALGWSASITYAGDEAPQFGELENGVLTYAASSLFSEANLARLFTEMPKTLTSFAPLGLVLVVILGAAVAERSGLFSALIRASLREAPKRILTPLVVIIGMVSHHASDAAYVVFIPLAGLLYAAVGRHPLAGIAAGFAAVSGGFAGNLTPGQFDVVLFGFTQEAARIIDPTWTMNPLGNWWYILAIVVVFTPIAWFLTDKVVEPRLGPWGGQADDALKAELAKSAVTADEKRGLKFAGLAALAIVALFAALSLIPGFTPLIDETKTGPAQLTPFYGALIAGFMMLFLAGGVAYGVGVGTVKTEGDVVNMMADGVRSVAPYIVFAFFAAHFVAMFNWSRLGPIAAIHGAETLKAMNLPAPLLLVSVLGFSSVLDLFIGSASAKWSALAPVVVPMFMLLGISPEMTTAAYRMGDSFTNLMTPLMSYFPLVLAMTRRWDPSMGVGSLLALMLPYALAFMVAGVAMTLAWVAFDWPLGPAAQVHYTPPGGLLK | failed
MAAERKTKLSKNLLRMKFMQRGLDSETKKQLEEEEKKIISEEHWYLDLPELKEKESFIIEEQSFLLCEDLLYGRMSFRGFNPEVEKLMLQMNAKHKAEEVEDETVELDVSDEEMARRYETLVGTIGKKFARKRDHANYEEDENGDITPIKAKKMFLKPQD | not failed
